From the supplement of paper PMC11246515
± gives the standard deviation of the averaged measurements.

Assay: total protein half-life in vivo (active degradation + dilution); higher = more stable protein
[1] = E. coli NCM3722 delta-clpP delta-lon delta-hslV, growth: N-lim chemostat, doubling time 6 h
[2] = E. coli NCM3722 delta-clpP, growth: N-lim chemostat, doubling time 6 h
[3] = E. coli NCM3722 delta-hslV, growth: N-lim chemostat, doubling time 6 h
[4] = E. coli NCM3722 delta-lon, growth: N-lim chemostat, doubling time 6 h
[5] = E. coli NCM3722 delta-smpB, growth: N-lim chemostat, doubling time 6 h
[6] = wild type E. coli NCM3722, growth: C-lim chemostat, doubling time 3 h
[7] = wild type E. coli NCM3722, growth: C-lim chemostat, doubling time 6 h
[8] = wild type E. coli NCM3722, growth: C-lim chemostat, doubling time 12 h
[9] = wild type E. coli NCM3722, growth: N-lim chemostat, doubling time 6 h
[10] = wild type E. coli NCM3722, growth: N-lim chemostat, doubling time 12 h
[11] = wild type E. coli NCM3722, growth: P-lim chemostat, doubling time 6 h
[12] = wild type E. coli NCM3722, growth: P-lim chemostat, doubling time 12 h

Row | Sequence | total protein half-life in vivo [1] [h] | total protein half-life in vivo [2] [h] | total protein half-life in vivo [3] [h] | total protein half-life in vivo [4] [h] | total protein half-life in vivo [5] [h] | total protein half-life in vivo [6] [h] | total protein half-life in vivo [7] [h] | total protein half-life in vivo [8] [h] | total protein half-life in vivo [9] [h] | total protein half-life in vivo [10] [h] | total protein half-life in vivo [11] [h] | total protein half-life in vivo [12] [h]
1 | MKKFAAVIAVMALCSAPVMAAEQGGFSGPSATQSQAGGFQGPNGSVTTVESAKSLRDDTWVTLRGNIVERISDDLYVFKDASGTINVDIDHKRWNGVTVTPKDTVEIQGEVDKDWNSVEIDVKQIRKVNP [P0ADU5] | 3.85 ± 0.19 | 5.07 ± 0.71 | 5.86 ± 0.11 | 6.2 ± 0.35 | 5.91 ± 0.28 | 2.89 ± 0.69 | 5.83 ± 0.75 | 6.74 ± 1.2 | 6.22 ± 0.79 | 11.8 ± 0.34 | 4.72 ± 0.64 | 7.98 ± 1.5
2 | MKPLHYTASALALGLALMGNAQAVTTIPFWHSMEGELGKEVDSLAQRFNAENPDYKIVPTYKGNYEQNLSAGIAAFRTGNAPAILQVYEVGTATMMASKAIKPVYDVFKEAGIQFDESQFVPTVSGYYSDSKTGHLLSQPFNSSTPVLYYNKDAFKKAGLDPEQPPKTWQDLADYAAKLKASGMKCGYASGWQGWIQLENFSAWNGLPFASKNNGFDGTDAVLEFNKPEQVKHIAMLEEMNKKGDFSYVGRKDESTEKFYNGDCAMTTASSGSLANIREYAKFNYGVGMMPYDADAKDAPQNAIIGGASLWVMQGKDKETYTGVAKFLDFLAKPENAAEWHQKTGYLPITKAAYDLTREQGFYEKNPGADTATRQMLNKPPLPFTKGLRLGNMPQIRVIVDEELESVWTGKKTPQQALDTAVERGNQLLRRFEKSTKS [P0AG80] | 4.8 ± 0.06 | 5.43 ± 0.54 | 7.41 ± 0.31 | – | 6.14 ± 0.2 | 3.37 ± 0.17 | 6.26 ± 0.076 | 12.9 ± 0.73 | 6.47 ± 0.47 | 12.7 ± 0.98 | 6.14 ± 0.21 | 12.99 ± 0.1
3 | MFEYLPELMKGLHTSLTLTVASLIVALILALIFTIILTLKTPVLVWLVRGYITLFTGTPLLVQIFLIYYGPGQFPTLQEYPALWHLLSEPWLCALIALSLNSAAYTTQLFYGAIRAIPEGQWQSCSALGMSKKDTLAILLPYAFKRSLSSYSNEVVLVFKSTSLAYTITLMEVMGYSQLLYGRTYDVMVFGAAGIIYLVVNGLLTLMMRLIERKALAFERRN [P0AE30] | 5.31 | 6.27 | – | 5.01 | – | – | 5.55 | – | 5.22 | – | 6.32 | 11
4 | MTPGGQAQIGNVDLVKQLNSAAVYRLIDQYGPISRIQIAEQSQLAPASVTKITRQLIERGLIKEVDQQASTGGRRAISIVTETRNFHAIGVRLGRHDATITLFDLSSKVLAEEHYPLPERTQQTLEHALLNAIAQFIDSYQRKLRELIAISVILPGLVDPDSGKIHYMPHIQVENWGLVEALEERFKVTCFVGHDIRSLALAEHYFGASQDCEDSILVRVHRGTGAGIISNGRIFIGRNGNVGEIGHIQVEPLGERCHCGNFGCLETIAANAAIEQRVLNLLKQGYQSRVPLDDCTIKTICKAANKGDSLASEVIEYVGRHLGKTIAIAINLFNPQKIVIAGEITEADKVLLPAIESCINTQALKAFRTNLPVVRSELDHRSAIGAFALVKRAMLNGILLQHLLEN [P0AF20] | 5.96 ± 0.13 | 6.14 ± 0.17 | 5.92 ± 0.068 | 6.27 ± 0.59 | 5.92 ± 1.2 | 2.98 ± 0.067 | 6.44 ± 0.24 | 11.3 ± 1.7 | 5.9 ± 0.28 | 13 ± 0.3 | 6.58 ± 0.7 | 15.1 ± 0.32
5 | MKKWAVIISAVGLAFAVSGCSSDYVMATKDGRMILTDGKPEIDDDTGLVSYHDQQGNAMQINRDDVSQIIER | 4.61 ± 0.25 | 5.4 | 4.24 ± 0.17 | 6.65 ± 0.55 | 3.25 ± 1.1 | 2.24 ± 0.32 | 4.63 ± 0.37 | 7.88 ± 0.34 | 4.76 ± 0.35 | 8.92 ± 2.6 | 3.68 ± 0.91 | –
6 | MIKFSATLLATLIAASVNAATVDLRIMETTDLHSNMMDFDYYKDTATEKFGLVRTASLINDARNEVKNSVLVDNGDLIQGSPLADYMSAKGLKAGDIHPVYKALNTLDYTVGTLGNHEFNYGLDYLKNALAGAKFPYVNANVIDARTKQPMFTPYLIKDTEVVDKDGKKQTLKIGYIGVVPPQIMGWDKANLSGKVTVNDITETVRKYVPEMREKGADVVVVLAHSGLSADPYKVMAENSVYYLSEIPGVNAIMFGHAHAVFPGKDFADIEGADIAKGTLNGVPAVMPGMWGDHLGVVDLQLSNDSGKWQVTQAKAEARPIYDIANKKSLAAEDSKLVETLKADHDATRQFVSKPIGKSADNMYSYLALVQDDPTVQVVNNAQKAYVEHYIQGDPDLAKLPVLSAAAPFKVGGRKNDPASYVEVEKGQLTFRNAADLYLYPNTLIVVKASGKEVKEWLECSAGQFNQIDPNSTKPQSLINWDGFRTYNFDVIDGVNYQIDVTQPARYDGECQMINANAERIKNLTFNGKPIDPNAMFLVATNNYRAYGGKFAGTGDSHIAFASPDENRSVLAAWIADESKRAGEIHPAADNNWRLAPIAGDKKLDIRFETSPSDKAAAFIKEKGQYPMNKVATDDIGFAIYQVDLSK | 6.84 ± 0.98 | 6.56 ± 1.5 | 6.23 ± 0.19 | 7.14 ± 0.34 | 5.91 ± 0.18 | 3.34 ± 0.07 | 5.93 ± 0.14 | 12.9 ± 2.1 | 6.327 ± 0.037 | 12.2 ± 1.1 | 5.23 ± 0.31 | 11.212 ± 0.0065
7 | MSFSVQETLFSLLQHNAISGHENAVADVMLCEFRRQAKEVWRDRLGNVVARYGSDKPDALRLMIFAHMDEVGFMVRKIEPSGFLRFERVGGPAQVTMAGSIVTLTGDKGPVMGCIGIKSYHFAKGDERTQSPSVDKLWIDIGAKDKDDAIRMGIQVGTPVTLYNPPQLLANDLVCSKALDDRLGCTALLGVADAISTMELDIAVYLVASVQEEFNIRGIVPVLRRVKPDLAIGIDITPSCDTPDLHDYSEVRINQGVGITCLNYHGRGTLAGLITPPRLIRMLEQTALEHNIPVQREVAPGVITETGYIQVEQDGIPCASLSIPCRYTHSPAEVASLRDLTDCIRLLTALAGMSAAHFPVEPDSGTTQEAHPL | > 8 | – | – | – | – | 3.05 ± 0.28 | 6.24 ± 0.29 | 10.9 ± 0.36 | – | – | – | 10.2
